Results on six molecules are retold here after patent US6156511A, “Peptide library and screening method” (Affymax Technologies N.V., priority 1998, dated 2000).

For data set [1], the target named is headpiece dimer B4.5 (mutant) Q18R (second headpiece) (Escherichia coli) (UniProt P03023). The settings on record: panning Exp. 3; lacOs plasmid complex stability, site of binding not established.
For data set [2], the target named is headpiece dimer A4.5 (mutant) Q18R (second headpiece) (Escherichia coli) (UniProt P03023). As to conditions: panning of protein-plasmid complex.
In data set [3] the target is Lac repressor (LacI)-peptide fusion, full length (Escherichia coli) (UniProt P03023). As to conditions: plasmid panning on D32.39 antibody; deletion of lacOs, near background.
In data set [4] the test system is DNA. As to conditions: cited from earlier work.
Data set [5] concerns plasmid pCMG14 fragments / lacOs-containing fragments. The experiment in a line: Protein-DNA binding experiments with plasmid fragments (gel shift, 32P-labeled fragments). The settings on record: over-expressed polypeptides; with unlabelled herring DNA competitor. The protocol:
To determine the plasmid binding site(s) of headpiece dimer mutant A4.5 and the non-mutant B7, several protein-DNA binding experiments were performed.

The test system of data set [6] is wild-type lacO. As to conditions: single wild-type lacO; cited from earlier work.
The test system of data set [7] is lacZYA. As to the kind of experiment: Repression of chromosomal lacZYA, direct β-galactosidase assay in strain ARI 20. It counts as cell-based, E. coli. The text has this:
One can estimate the lacI expression level necessary to fill the available binding sites in a typical plasmid p.MC5 derivative by observing the behavior of strain ARI 20 (lacI^- lacZYA^+) transformed with pMC3 or pMC5 (encoding only the linker peptide GADGA [SEQ. ID NO.:65]). Because the lacO sites in plasmids pMC3 and pMC5 have higher affinity than those in the lacZYA operon, the available repressor should fill the plasmid sites first. Substantial repression of lacZYA should be observed only if there is an excess of repressor beyond the amount needed to fill the plasmid sites. As shown by color level on X-gal indicator plates and direct assays of β-galactosidase (see Miller, Experiments in Molecular Genetics (Cold Spring Harbor Laboratory, Cold Spring Harbor, N.Y. (1972)), incorporated herein by reference), the amount of repressor produced by pMC5 is sufficient to fill the lacO sites and repress greater than 200 fold lacZYA in ARI 20 host cells during growth in normal LB medium (2.4 units compared to 500 units from ARI 20 transformed with vector pBAD18, which has no lacI). The repressor encoded by pMC3 was partially inactivated by the addition of the dynorphin B tail, allowing about 10 fold higher expression of lacZYA (37 units). […]

Data set [8] addresses Lac repressor (LacI)-peptide fusion, full length (Escherichia coli, UniProt P03023 P03023:1-360). As to the kind of experiment: panning Exp. 3, partial (B) induction. As to conditions: chain copies: 4 (stated tetramer).

Where two headings read alike, the source gives them in different places.

For AATTGTGAGCGCTCACAATT (double strand), the activity (fold enrichment) in data set [1] was determined as 850. In addition, the binding signal (fold enrichment) in data set [2] (plasmid with lacOs) came to 43.

Turning to plasmid lacking lacOs, the binding signal (fold drop in enrichment) in data set [3] was 446. This molecule also gave a binding signal (fold enrichment) in data set [2] (lacOs not required) of 44.

Consider “arc repressor: arc repressor of phage P22 (MKGMSKMPQFNLRWPREVLDLVRKVAEENGRSVNSEIYQRVMESFKKEGRIGA; UniProt P03050 1-53, looked up)”, for which, in data set [4], the dissociation half-life is 1.33 h.

B1: lac repressor: 37 kDa product of the E. coli lacI gene, binds lacO (protein, UniProt P03023 1-360, looked up)
Lactose operon repressor: MKPVTLYDVAEYAGVSYQTVSRVVNQASHVSAKTREKVEAAMAELNYIPNRVAQQLAGKQSLLIGVATSSLALHAPSQIVAAIKSRADQLGASVVVSMVERSGVEACKAAVHNLLAQRVSGLIINYPLDDQDAIAVEAACTNVPALFLDVSDQTPINSIIFSHEDGTRLGVEHLVALGHQQIALLAGPLSSVSARLRLAGWHKYLTRNQIQPIAEREGDWSAMSGFQQTMQMLNEGIVPTAMLVANDQMALGAMRAITESGLRVGADISVVGYDDTEDSSCYIPPLTTIKQDFRLLGQTSVDRLLQLSQGQAVKGNQLLPVSLVKRKTTLAPNTQTASPRALADSLMQLARQVSRLESGQ
For B1, the “binding to 32P-labeled plasmid fragments” value in data set [5] was “specific binding of lacI to lacOs -containing fragments”. For the same molecule, in data set [6], the association rate constant was 7e+09 M⁻¹ s⁻¹ and the “half-life for the lac repressor-lacO complex” value is recorded as “about 30 min”.

B2: pMC5: library plasmid encoding lac repressor with only the linker peptide GADGA (protein, UniProt P03023 1-360, looked up)
Lactose operon repressor: MKPVTLYDVAEYAGVSYQTVSRVVNQASHVSAKTREKVEAAMAELNYIPNRVAQQLAGKQSLLIGVATSSLALHAPSQIVAAIKSRADQLGASVVVSMVERSGVEACKAAVHNLLAQRVSGLIINYPLDDQDAIAVEAACTNVPALFLDVSDQTPINSIIFSHEDGTRLGVEHLVALGHQQIALLAGPLSSVSARLRLAGWHKYLTRNQIQPIAEREGDWSAMSGFQQTMQMLNEGIVPTAMLVANDQMALGAMRAITESGLRVGADISVVGYDDTEDSSCYIPPLTTIKQDFRLLGQTSVDRLLQLSQGQAVKGNQLLPVSLVKRKTTLAPNTQTASPRALADSLMQLARQVSRLESGQ
modifications: C-terminal GADGA linker peptide
Take B2: the “repression of lacZYA” value in data set [7] (ARI 20, LB medium, compared with vector pBAD18 (no lacI)) is given as “greater than 200 fold”. Besides, in data set [7] (ARI 20 host cells, normal LB medium), the β-galactosidase came to 2.4 units.

B3: lacOs (symmetric lac operator) on plasmid or plasmid fragment (dsDNA)
DNA 1: AATTGTGAGCGCTCACAATT
DNA 2: AATTGTGAGCGCTCACAATT
Take B3: the activity in data set [8] came to 155 fold enrichment.
